Experimental data from US20250381277A1, “COMPOSITIONS AND METHODS FOR TREATMENT OF NEUROLOGICAL DISORDERS” (Dana-Farber Cancer Institute, Inc., priority 2022, published 2025).
Blank lines part the entries; values can stand above or below the compound they belong to.

Legend:
[1] = molecular target: CD11b on microglia from 5XFAD mice (mouse) (UniProt P05555); assay: flow cytometry, AF488-CD11b fluorescence, microglia from 5XFAD mice; isotype control histogram (top trace) [B]
CD11c^− microglia = assay: Apoptotic neuron (AN) uptake and CD11c^- to CD11c^+ differentiation of microglia with αVβ3 / TAM receptor inhibitors; format: cell-based, mouse; conditions: P5 B6-WT CD11c^− microglia, 72 h with pHrodo-labeled ANs 1:1; cilengitide 10 μM, LDC1267 1 μM
Source text: (A) Brain single cell suspensions of 9-mo old WT mice were generated for validation of microglial CD11c expression by flow cytometry. We first gate on CD11b^+ cells from single/live cells followed by subsequent gating of CD11b^+CD45^low populations as potential microglia. […] In contrast, CCR2 but not Tmem 119 expression is detected in the CD11b^+CD45^high fraction, i.e., putative macrophage populations. Analysis of the CD11b^+CD45^low microglial population using FMO negative controls for these FACS plots confirms specificity. […] (B) The proportion of CD11c^+ microglia in C57BL/6 (B6) mice during early development and normal aging (n=3) was determined by flow cytometry analysis. CD11c^+ microglia were initially present at late embryonic day (E18.5), peaked at early postanal day (P5) and gradually declined to marginal levels in young adulthood (3-mon) followed by re-emergence and further expansion during aging. (C) CD11c^− microglia were isolated from P5 B6-WT mice by negative section with anti-CD11c magnetic beads (purity >99%) followed by co-incubation×72 h in the presence or absence of pHrodo fluorescent dye-labeled apoptotic neurons (ANs) at a 1:1 ratio. After 72 h incubation, 23% of total CD11c^− microglia had ingested ANs (AN^+), of which 77.4% of these AN^+ microglia were CD11c^+. […] Expression of CD11c was assessed in CD86^+ or MHC II^+ activated microglia. […]

[2] = molecular target: osteopontin (OPN) produced by mouse microglia (mouse) (UniProt P10923); assay: intracellular flow cytometry, SSC against OPN, microglia of 9-mo mice stained with the isotype control 1:10 (genotype of this panel not labelled)
[3] = molecular target: osteopontin (OPN) produced by mouse microglia (mouse) (UniProt P10923); assay: intracellular flow cytometry, SSC against OPN, microglia stained with the isotype control (the legend says only 'Isotype control'; genotype of this panel not labelled) [b]

UniProt P10923, sequence (P10923 17-294 limits assumed): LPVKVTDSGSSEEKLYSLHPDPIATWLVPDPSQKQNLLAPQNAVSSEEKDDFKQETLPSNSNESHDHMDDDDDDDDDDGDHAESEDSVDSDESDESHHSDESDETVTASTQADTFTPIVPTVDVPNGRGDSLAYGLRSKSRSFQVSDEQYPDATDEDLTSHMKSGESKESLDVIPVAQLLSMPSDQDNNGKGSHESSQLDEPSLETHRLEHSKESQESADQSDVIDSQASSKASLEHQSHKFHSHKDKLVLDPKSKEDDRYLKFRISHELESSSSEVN
UniProt P05555, sequence (P05555 17-1153): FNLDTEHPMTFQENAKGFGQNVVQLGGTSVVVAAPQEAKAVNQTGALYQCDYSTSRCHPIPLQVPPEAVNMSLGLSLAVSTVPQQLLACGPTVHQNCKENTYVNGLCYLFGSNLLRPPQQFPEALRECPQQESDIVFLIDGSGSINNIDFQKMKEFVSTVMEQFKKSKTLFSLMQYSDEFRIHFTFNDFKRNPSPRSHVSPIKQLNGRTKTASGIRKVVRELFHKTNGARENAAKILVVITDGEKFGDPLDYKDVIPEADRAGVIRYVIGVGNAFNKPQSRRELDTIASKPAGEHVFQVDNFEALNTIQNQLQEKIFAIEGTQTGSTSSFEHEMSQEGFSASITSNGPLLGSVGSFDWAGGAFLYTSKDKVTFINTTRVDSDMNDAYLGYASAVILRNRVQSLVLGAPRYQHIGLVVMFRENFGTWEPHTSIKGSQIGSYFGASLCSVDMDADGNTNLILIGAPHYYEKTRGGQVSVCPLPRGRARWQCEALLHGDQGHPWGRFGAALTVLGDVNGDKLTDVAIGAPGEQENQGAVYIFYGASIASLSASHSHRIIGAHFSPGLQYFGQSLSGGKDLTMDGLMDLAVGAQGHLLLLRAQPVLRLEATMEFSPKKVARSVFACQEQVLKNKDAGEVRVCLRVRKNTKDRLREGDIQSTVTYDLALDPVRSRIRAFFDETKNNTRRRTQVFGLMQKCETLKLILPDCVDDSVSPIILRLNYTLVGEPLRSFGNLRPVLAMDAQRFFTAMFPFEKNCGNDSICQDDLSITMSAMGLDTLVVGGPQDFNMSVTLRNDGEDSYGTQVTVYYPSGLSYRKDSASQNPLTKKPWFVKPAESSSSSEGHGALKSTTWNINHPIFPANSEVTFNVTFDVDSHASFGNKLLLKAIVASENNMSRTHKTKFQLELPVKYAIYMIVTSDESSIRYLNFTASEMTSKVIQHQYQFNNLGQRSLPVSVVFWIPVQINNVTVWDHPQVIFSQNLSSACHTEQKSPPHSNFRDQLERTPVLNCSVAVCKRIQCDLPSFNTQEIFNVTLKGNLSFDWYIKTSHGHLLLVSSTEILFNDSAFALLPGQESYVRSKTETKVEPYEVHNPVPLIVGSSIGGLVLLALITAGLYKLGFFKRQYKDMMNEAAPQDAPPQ

CD11b+ microglia (%) [1]: 0.4%
Compound: Isotype (antibody)

reduction of AN uptake by CD11c^− microglia (CD11c^− microglia): about 50%
Compound: CCOc1cn(-c2ccc(F)cc2C)nc1C(=O)Nc1ccc(Oc2ccnc3cc(OC)c(OC)cc23)c(F)c1 [LDC1267]

number printed over the OPN+ gate (frequency of OPN+ microglia) [2]: 0.4% | number printed in the OPN+ gate (frequency of OPN+ microglia) [3]: 0.25%
Compound: isotype control (PE-conjugated goat IgG) (antibody)
